# B1: sCD31: soluble form of CD31; murine sCD31 with SEQ ID NO: 3 (protein)
# chain: MLLALGLTLVLYASLQAEENSFTINSIHMESLPSWEVMNGQQLTLECLVDISTTSKSRSQHRVLFYKDDAMVYNVTSREHTESYVIPQARVFHSGKYKCTVMLNNKEKTTIEYEVKVHGVSKPKVTLDKKEVTEGGVVTVNCSLQEEKPPIFFKIEKLEVGTKFVKRRIDKTSNENFVLMEFPIEAQDHVLVFRCQAGILSGFKLQESEPIRSEYVTVQESFSTPKFEIKPPGMIIEGDQLHIRCIVQVTHLVQEFTEIIIQKDKAIVATSKQSSEAVYSVMAMVEYSGHYTCKVESNRISKASSIMVNITELFPKPKLEFSSSRLDQGELLDLSCSVSGTPVANFTIQKEETVLSQYQNFSKIAEESDSGEYSCTAGIGKVVKRSGLVPIQVCEMLSKPSIFHDAKSEIIKGHAIGISCQSENGTAPITYHLMKAKSDFQTLEVTSNDPATFTDKPTRDMEYQCRADNCHSHPAVFSEILRVRVIAPVDEVVISILSSNEVQSGSEMVLRCSVKEGTSPITFQFYKEKEDRPFHQAVVNDTQAFWHNKQASKKQEGQYYCTASNRASSMRTSPRSSTLAVRVFL
# modifications: Soluble CD31 (sCD31)
# Experiments:
# IL-10 = IL-10 levels in mice after intravenous injection (plasma ELISA); conditions: mouse
# Procedure: To test whether the anti-inflammatory properties of agonistic anti-CD38 antibodies were also observe in vivo, we intravenously injected anti-CD38 antibody clone HB7 (15 mg/kg) to mice.
# Blood samples collected in collection tube (Microvette® 500 EDTA-K3, […]) were centrifuged at 3000 rotations per minute during 15 minutes. Supernatants (plasma) were collected and transferred into tubes and froze at −80° C. for further analysis. IL-10 levels in plasma samples were assayed using an ELISA IL-10 kit (BioLegend®) according to the indications for use specified by the manufacturer.
# [1] = system: midbrain dopaminergic (TH+) neurons; assay: MPP+ intoxication model in midbrain cell cultures, survival of DA (TH+) neurons; format: cell-based, Wistar rat
# Procedure: For this purpose, spontaneously occurring DA cell death was prevented by a treatment combining depolarizing concentrations of K^+ (30 mM) and MK801 (5 μM), a glutamate receptor antagonist used to prevent unwanted excitotoxic insult. The cultures were then exposed to 3 μM MPP between 5 and 7 days in vitro (DIV) to achieve a loss of approximately 50% of DA neurons.
# Animals were treated in accordance with the Guide for the Care and Use of Laboratory Animals (National Research Council, 1996), European Directive 86/609, and the guidelines of the local institutional animal care and use committee. Cultures were prepared from the ventral mesencephalon of gestational age 15.5 Wistar rat embryos (Janvier Breeding Center, Le Genest St Isle, France). Dissociated cells in suspension obtained by mechanical trituration of midbrain tissue pieces were seeded at a density of 1.2-1.5×10^5 cells/cm^2 onto tissue culture supports precoated with 1 mg/mL polyethylenimine diluted in borate buffer pH 8.3 as described (Michel et al., 1997. J Neurochem. 69(4):1499-507). The cultures were then maintained in N5 medium supplemented with 5 mM glucose, 5% horse serum, and 0.5% fetal calf serum, except for the first 3 DIV, when the concentration of fetal calf serum was 2.5% to favor initial maturation of the cultures (Guerreiro et al., 2008. Mol Pharmacol. 74(4):980-9). They were fed daily by replacing 70% of the medium. Routinely, mesencephalic cultures were established on Nunc 24-well culture plates (Thermofischer Scientific, Rochester, N.Y.). Note that these cultures contain tyrosine hydroxylase (TH)^+ neurons that were exclusively dopaminergic (Traver et al., 2006. Mol Pharmacol. 70(1):30-40). TH^+ neurons represented approximately 1-2% of the total number of neuronal cells present in these cultures. The evaluation of the survival of DA neurons was performed by counting cells immunopositive for TH as described (Toulorge et al., 2011. Faseb J. 25(8):2563-73).
# Treatments with MPP were performed in cultures where the spontaneous death process was prevented by long-term exposure to depolarizing concentrations of K^+ (30 mM), in the presence of the glutamate receptor antagonist MK801 (5 μM) to prevent unwanted excitotoxic insults as described previously (Douhou et al., 2001. J Neurochem. 78(1): 163-74). Treatments with MPP and potential neuroprotective molecules were carried out between 5 and 7 DIV.
# The cultures were fixed for 12 min using 4% formaldehyde in Dulbecco's phosphate-buffered saline (PBS), then washed twice with PBS before an incubation step at 4° C. for 24 h with the following antibodies. A monoclonal anti-TH antibody diluted 1/5000 (ImmunoStar, Inc., Hudson, Wis.) was used to assess the survival of DA neurons. Antibody was diluted in PBS containing 0.2% Triton X-100. Detection of the primary antibodies was performed with an Alexa Fluor-488 conjugate of an anti-mouse IgG antibody.
molecule,measurement,setting,value
B1,release of IL-10 in vivo (conclusion in words),IL-10,strong release
same,EC50 of prevention of MPP+-induced DA cell loss,"[1]; 3 μM MPP+ between 5 and 7 DIV, sCD31 during the intoxication period",0.036 µg/mL
same,neuroprotective effect against MPP+-induced DA cell death,"[1]; 3 μM MPP+ between 5 and 7 DIV, test substance up to 1 μg/mL",prevented
same,neuroprotective effect in the presence of antagonistic anti-CD38 antibody clone AT13/5,"[1]; 3 μM MPP+, test substance 1 μg/mL, AT13/5 1 μg/mL",antagonized
same,neuroprotective effect in the presence of anti-CD31 antibody clone Moon-1,"[1]; 3 μM MPP+, test substance 1 μg/mL, Moon-1 1 μg/mL",antagonized
same,neuroprotective effect in the presence of antagonistic anti-CD38 antibody clone OKT10,"[1]; 3 μM MPP+, test substance 1 μg/mL, OKT10 1 μg/mL",antagonized
same,neuroprotective effect in the presence of endosidin2,"[1]; 3 μM MPP+, test substance 1 μg/mL, endosidin2 40 μM",antagonized
same,neuroprotective effect in the presence of the tyrosine kinase inhibitor genistein,"[1]; 3 μM MPP+, test substance 1 μg/mL, genistein 10 nM",antagonized
same,neuroprotective effect in the presence of the lysosomal exocytosis inhibitor vacuolin-1,"[1]; 3 μM MPP+, test substance 1 μg/mL, vacuolin-1 10 μM",antagonized
